Experimental data published in the nanobody polyreactivity screen of Harvey et al. (2022).

Test: yeast display, Sf9 membrane polyspecificity reagent, FACS + sequencing; frameworks hold sequencing errors
In short: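 In a synthetic yeast display library (Saccharomyces cerevisiae BJ5465), nanobody expression was induced with galactose for 36–48 hours. FACS gates were set low and high (top ~1%) using anti-HA fluorescence for expression and streptavidin fluorescence for binding of the Sf9 membrane reagent. Each polyreactivity label is drawn from the gate of origin.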

| Sequence | polyreactivity (PSR sort gate) |
| --- | --- |
| QDQLVESGGGLVQAGGSLRLSCAASGSIFAGYVMGWYRQAPGKERELVASISSGTGTFYADSVKGRFTISRDNAKNTVYLQMNSLKPEDTAVYYCAAESYRTVQFIRSRWRYTYDYWGQGTQVTVSS | low polyreactivity |
| QVQLVESGAGLLQAGGSLRISCAASGLTFKIIAMGWYRQAPGKERELVAAISSGTSTNYADSVKGRFTISRDNAKITVYLQMNSLKPEDTAVYYCAARGFWGVAYRYYYWGQGTQVTLSS | high polyreactivity |
| QVQLVESGAGIVQAGGSLRLSCAASGSTFYSYTMGWYRQAPGKERELVAAITSTGGRTYYADSVKGRFTISRDNAKITVYLQMNSLKPEDTAVYYCRRPYLYGMYYWGQGTQVTVSS | high polyreactivity |
| QVQLVESGGGLVQAGGSLRLSCAASGFTFYHYAMGWYRPAPGKERELVAAITWSGGDTYYADSEKGRFTSSRDNAKNTVYLQMNSLKPEDTAVYYCNADDPPGAPYYDSFDYRGDYWGQGTQRTVSS | low polyreactivity |
| QVQLVESGGGLVQAGGSLRLSCAASGRTFRTNAMGWYRQAPGKEPELVAAISRGGGSTYYADSVKGRFTISRDNAKNTVYLQMNSLKPEDTAVYDCNALRNGIAFGAMDYWGQGTQVNVSS | high polyreactivity |
| QVQLVESGGGLVQAGGSLRLSCAASGLTFADYAMGWYRQAPGKERELVAAISRRGGSTYYADSVKGRFTISRDNAKNTVYLQMNSLKPEDTAVYYCAAYAYDVAFKRYKFDYWGQGTQVTVSS | high polyreactivity |
| QVQLVESGGGLVQAGGSLRLSCAASGRIFSWYAMGWYRQAPGKERELVAAISASGSSTYYADSVKGRFTISRDNAKNTVYLQMNSLKPEDTAVYYCNTVSAYYARRSEGYDYWGQGTQVTVSS | high polyreactivity |
| QVQLVESGGGLVQEGGSLRLSCAASGRTFYINGLGWYRQAPGKEREFVASITWRGGRTYYADSVKGRFTISRDNAKNTVYLQMNSLKPEDTAVYYCNAVGLGGRATSRWYTHYYWGQGTQVTVSS | high polyreactivity |
| QVQLVESGGGLVQAGGSLRLRCAASGRTFDTYAMGWYRQAPWKERELVASITYRGGSTYYADSVKGRFTITRDNAKNTVYLQMNSLKPEDTAVYYCNAKVKRNKRWRGYWGQGTQVTVSS | high polyreactivity |
| QVQLVESGGGLVPAGGSLRLSCAASGRTFAGNAMGWYRPAPGTERELVAVISRGGSTYYADSVKGRFTISRDNAKNTVYLQMNSLKPEDTAVYYCAARLRTTSVRGRYDYWGQGTQVTVSS | high polyreactivity |
| QVQLVESGGGLVQAGGSLSLSCAASGYIFAVYAMGWYRQAPGKEREFVAVITWRGGSTYYADSVKGRFTISRDNAKNTVYLQMNSLKPEDTAVYYCAARWHFLTSSRFDYWGQGTQVTVSS | high polyreactivity |
| QVQLVESGGGLVQAGGSLRLSCAASGRIFSVNAMGWYRQAPGTEREFVAAISWSGSSTYYADSVKGRFTSSRDNAKITVYLQMNSLKPEDTAVYYCNADIDFGTREVYYWGQGTQVTVSS | low polyreactivity |
| QVQLVESGGGLVQAGGSLRLSCAASGRIFHNYAMGWYRQAPGKERELVAGISSRGGSTYYADSVKGRFTISRDNAKNTVYLQMNSLKPEDTAVYYCAKDKSPYGYATNQYRKYYYWGQGTQVTVSS | low polyreactivity |
| QVQLVESGGGLVQAGGSLRLSCAASGFIFSSNAMGWYRQAPGKERELVARITWSDGSTYYADSVKGRFTISRDNAKNTVYLQMNSLKPEDTAAYYCAKGRDATHYEYYLYSMDYWGQGTQVTVSS | low polyreactivity |
| QVQLVESGGGLVQAGGSLRLICAASGRIFRANAMGWYRQAPGQERELVATITISGGSTYYADSVKGRFTISRDNAKNTVYLQMNCLKPEDTAVYYCNAGHTLTFVPRPAYYSMYYWGQGTQVTVSS | low polyreactivity |
| QVQLVESGGGLVQAGGRLRLSCAASGSTFGFNAMGWSREAPGKERELVAASNDSGGDTYYADSVKGRFTSSRDNAKNTVYLQMNSLKPEDTAVYYCAADEPSSVYGILVELEYWGQGTQVTVST | high polyreactivity |

| Sequence | polyreactivity (PSR sort gate) |
| --- | --- |
| KVQLVESGGGLVQAGGSLRLSCAHSGYIFGYYAMGCYRQAPGKERELVAAISSGGNTNYADSVKGRYTISRDNAKTTVYLQMNSLKPEDTAVNYCATRDRYKRIRYDYWGQGTQVTVSS | high polyreactivity |
| QVQLVESGGGLVQAGGSLRLSCAASGFTLWLNAMGWYRQAPGTERELVAAITTSDDGTYYADSVKGRFTISRDNAKNTVYLQMNSLKPEDTAVYYCAADYYSVLYDYWGQGTQVTVSS | low polyreactivity |
| QVQLVESGGGLVQAGGSLRLSCAASGSIFYYYGMGWYRQAPGKERELVAGISSRGGRTYYADSVKGRFTISRDNAKNTVYLQMNSLKPEDTAVYYCAADRYYYAYRYYPSGYWGQGTQVTVSS | low polyreactivity |
| QVQLVESGGGLVQAGGSLRLSCAASGSIFWRYAMGWYRQAPGKERELVAAISSSGSTYYADSVKGRFTISRDNAKNTVYLQMNSLKPEDTAVYYCAKRASALLRHSYDYWGQGTQVSVSS | low polyreactivity |
| QVQLVESGGGLVQAGGSLRLSCAASGSTFEYYAMGWDRQAPGKERELVAGISTGGSSNYADSVKGRFTISRDNAKNTVYLQMNSLKPEDTAVYYCNRDWALYVFGSHYHAYYSWGQGTQVTVSS | low polyreactivity |
| QVHLVESGGGLVQAGGSLRLSCAASGRIFGVYAMGWYRQAPGKERELVAVISWSGTSTYYADSVKGRFTISRDYAKNTVYLQMNSLKPEDTAVYYCAADYIGITDYYAIVVYLGYDSWGQGTQVTVSS | high polyreactivity |
| QVQLVDSGGGLVQAGGRLRLSCAASGFTFPSNAMGWYRKAPGKERQLVASINQRGGSTYYADSVKGRFTISRDNAKNTVYLQMNSLKPEDTAVYYCAAGPTSRRWYDYWGQGTQVTVSS | high polyreactivity |
| QVQLVESGGGLVQAGGSLRLSCAASGITFIPNAMGWYRQAPGKERELVAAISISGGRTYYADSVKGRFTISRDNAKNTVYLQMNSLKPEVTAVYYCAVDSWSRVQGWLAHNYDYWGQGTQVTVSS | low polyreactivity |
| QVQLVESVGGLVQAGGSLRLSCAASGSIFFSYAMGWYRQAPGKERELVAGINWSGGSTYADSVKGRFTISRDNAKNTVYLQMNSLKPEDTAVYYCAAKYYSERSRYHYWGQGTQVTVSS | low polyreactivity |
| QVQLVESGGGLVQAGGSLRLSCAATGSNFGSNAMGWYRQAPGKEMELVAAITESGGDTYYADSVKGRFTISRDNAKNTVYLQMNSLKPEDSAVFYCAARYFGGIVDVSLFREYGSWGQGTQVTVSS | low polyreactivity |
| QVQLVESGGGLVQAGGSLRLSCAASGSTFIPYTMGWYRQAPGKERELVAAISGRGGRTYYADSVKGRFTISRDNAKNTVYLQMNSLKPEDTAVYYCNRVLRYGPSAQYDYWGQGTQVTVSS | high polyreactivity |
| QFQLVESGGGLVQAGGSLRLSCESSGFTFYKYAIGSYRKAPGKERELVAAISRRGTSTYYADSVKGRFTISRDNAKNTVYLQMNSLNPEDTAVYYCNRDVSLSAFDYWGQGTQVTVSS | high polyreactivity |
| QVQLVESGGGLVQAGGSLRLSCAASGSIAGNAMGWYRQAPGKERELVATITRRGGRTYYADSVKGRFTISRDNAKNTVYLQMNSLKPEDTAVYYCNKVSYARGYDYWGQGTQVTVSS | high polyreactivity |
| QVQLVESGGGLVQAGGSLRLSCAASGIILPQNAMGWYRQAPGKERELVAAISKSGGRTYYADSVKGRFTISRDNAKNTVYLQMNSLKPEDTAVYYCAAVVRRAPEFDYWGQGTQVTVSS | high polyreactivity |
| QVQLVESGGGLVQAGGSLRLSCAASGSIFVVNAMGWYRQAPGKERELVAGISFRGGTTYYADSVKGRFTISRDNAMNTVYLQMNSLKPEDTAVYYCNAVYTSNRNEYDYWGQGTQVTVSS | low polyreactivity |
